Changes are numbered by the printed parent chain. Names may count otherwise. Bridges are numbered along the chain shown (N, C = ends). [ ]: non-standard residue; d: D form. glutaryl‑PEG9‑azide = glutaryl-PEG9-azide group on the N-terminal amine; hSer = N[C@@H](CCO)C(=O)O; Nle = CCCC[C@H](N)C(=O)O
Columns and labels:
[1] = biological target: T1, IL-7 receptor (IL-7Rα/γc heterodimer) on primary human T cells (human, UniProt P16871 21-459; P31785 23-369); experiment: cell-based or functional assay
T1 sequence (looked up) 1: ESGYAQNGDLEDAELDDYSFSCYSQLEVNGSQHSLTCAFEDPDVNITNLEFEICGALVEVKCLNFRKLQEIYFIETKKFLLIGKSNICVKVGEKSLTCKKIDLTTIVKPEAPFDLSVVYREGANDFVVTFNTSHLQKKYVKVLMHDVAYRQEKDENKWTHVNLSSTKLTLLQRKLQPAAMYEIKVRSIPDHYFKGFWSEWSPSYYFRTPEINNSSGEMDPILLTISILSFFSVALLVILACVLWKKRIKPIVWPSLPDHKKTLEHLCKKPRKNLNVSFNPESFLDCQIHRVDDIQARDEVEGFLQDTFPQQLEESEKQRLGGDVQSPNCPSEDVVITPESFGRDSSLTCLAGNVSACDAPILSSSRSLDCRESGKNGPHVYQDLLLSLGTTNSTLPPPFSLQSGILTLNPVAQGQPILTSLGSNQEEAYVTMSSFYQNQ
T1 sequence (looked up) 2: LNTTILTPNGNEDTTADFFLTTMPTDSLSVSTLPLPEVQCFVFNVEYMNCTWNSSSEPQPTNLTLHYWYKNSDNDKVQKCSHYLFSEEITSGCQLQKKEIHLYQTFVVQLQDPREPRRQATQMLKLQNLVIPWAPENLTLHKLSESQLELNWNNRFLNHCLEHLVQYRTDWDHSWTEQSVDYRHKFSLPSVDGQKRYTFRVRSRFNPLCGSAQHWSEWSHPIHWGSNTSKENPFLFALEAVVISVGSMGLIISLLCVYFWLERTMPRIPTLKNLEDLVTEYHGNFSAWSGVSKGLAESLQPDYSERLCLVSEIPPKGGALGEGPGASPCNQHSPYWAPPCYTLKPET

[2] = biological target: T2, Recombinant Human IL-7R alpha/CD127 Fc Avi-tag Protein, CF (R&D Systems #AVI10317-050) (human, UniProt P16871 21-239); experiment: BLI (Octet R8); CD127-Fc-Avi loaded on SAX2 sensor, IL-7 polypeptide as analyte
T2 construct: Bought construct; It was loaded on streptavidin (SAX/SAX2) biosensors; not shown: Fc and Avi-tag of a bought protein
T2 sequence (looked up): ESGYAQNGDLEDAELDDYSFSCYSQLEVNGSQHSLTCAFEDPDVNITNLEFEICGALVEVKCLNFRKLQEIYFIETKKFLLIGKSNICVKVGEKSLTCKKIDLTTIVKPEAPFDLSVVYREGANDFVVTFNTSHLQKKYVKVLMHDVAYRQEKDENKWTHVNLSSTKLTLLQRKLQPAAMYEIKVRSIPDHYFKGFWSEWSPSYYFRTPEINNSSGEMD

B1: CMP-036, synthetic IL-7 of SEQ ID NO: 3 (no N-terminal conjugation handle) (ligand)
chain: DCDIEGKDGKQYESVL[Nle]VSIDQLLDS[Nle]KEIGSNCL[hSer]NEFNFFKRHICDANKEG[Nle]FLFRAARKLRQFLK[Nle]NSTGDF[hSer]LHLLKVSEGTTILLNCTGQVKGRKPAALGEAQPTKSL[hSer]ENKSLKEQKKLNDLCFLKRLLQEIKTCWNKIL[Nle]GTKEH
modifications: ends and bridges not checked
- EC50 pSTAT5, CD4 Memory [1]: 5 pM
- EC50 pSTAT5, CD4 Naive [1]: 5 pM
- EC50 pSTAT5, CD4 Treg [1]: 15 pM
- EC50 pSTAT5, CD8 Memory [1]: 6 pM
- EC50 pSTAT5, CD8 Naive [1]: 6 pM

B2: CMP-035, recombinant human native IL-7 with His-tag (ligand)
chain: DCDIEGKDGKQYESVLMVSIDQLLDSMKEIGSNCLNNEFNFFKRHICDANKEGMFLFRAARKLRQFLKMNSTGDFDLHLLKVSEGTTILLNCTGQVKGRKPAALGEAQPTKSLEENKSLKEQKKLNDLCFLKRLLQEIKTCWNKILMGTKEHVDHHHHHH
notes: also called WT IL-7 His; recombinant IL-7 (WT)
- EC50 pSTAT5, CD4 Memory [1]: 1 pM
- EC50 pSTAT5, CD4 Naive [1]: 1 pM
- EC50 pSTAT5, CD4 Treg [1]: 32 pM
- EC50 pSTAT5, CD8 Memory [1]: 6 pM
- EC50 pSTAT5, CD8 Naive [1]: 2 pM
- Kd [2]: 1.28 nM
- koff [2]: 0.00698 s⁻¹
- kon [2]: 5.47e+06 M⁻¹ s⁻¹

B3: CMP-117, recombinant IL-7 Q11F with His-tag (ligand)
chain: B2 chain with Q11F
- EC50 pSTAT5, CD4 Memory [1]: 1 pM
- EC50 pSTAT5, CD4 Naive [1]: 1 pM
- EC50 pSTAT5, CD4 Treg [1]: 10 pM
- EC50 pSTAT5, CD8 Memory [1]: 2 pM
- EC50 pSTAT5, CD8 Naive [1]: 1 pM

B4: CMP-113, synthetic IL-7 C2A, C92A of SEQ ID NO: 10 with glutaryl-PEG9-azide at the N-terminus (ligand)
chain: {glutaryl‑PEG9‑azide}-DADIEGKDGKQYESVL[Nle]VSIDQLLDS[Nle]KEIGSNCL[hSer]NEFNFFKRHICDANKEG[Nle]FLFRAARKLRQFLK[Nle]NSTGDF[hSer]LHLLKVSEGTTILLNATGQVKGRKPAALGEAQPTKSL[hSer]ENKSLKEQKKLNDLCFLKRLLQEIKTCWNKIL[Nle]GTKEH
modifications: ends and bridges not checked
- EC50 pSTAT5, CD4 Memory [1]: 40 pM
- EC50 pSTAT5, CD4 Naive [1]: 40 pM
- EC50 pSTAT5, CD4 Treg [1]: 0.18 nM
- EC50 pSTAT5, CD8 Memory [1]: 60 pM
- EC50 pSTAT5, CD8 Naive [1]: 50 pM

B5: CMP-114, CMP-108 conjugated to 30 kDa DBCO PEG at the N-terminus (ligand)
chain: DCDIEGKDGKQYESVL[Nle]VSIDQLLDS[Nle]KEIGSNCL[hSer]NEFNFFKRHICDANKEG[Nle]FLFRAARKLRQFLK[Nle]NSTGDF[hSer]LHLLKVSEGTTILLNCTGQVKGRKPAALGEAQPTKSL[hSer]ENKSLKEQKKLNDLCFLKRLLQEIKTCWNKIL[Nle]GTKEH-NH2
modifications: disulfide 34-129, 47-141, 2-92; not fully specified (N-terminus); also: N-terminal azide conjugated to 30 kDa DBCO-PEG
- EC50 pSTAT5, CD4 Memory [1]: 4 pM
- EC50 pSTAT5, CD4 Naive [1]: 2 pM
- EC50 pSTAT5, CD4 Treg [1]: 10 pM
- EC50 pSTAT5, CD8 Memory [1]: 4 pM
- EC50 pSTAT5, CD8 Naive [1]: 5 pM

From patent publication US20240424127A1 (BRIGHT PEAK THERAPEUTICS, published 2024)
